Test: Stability assay in 25% TIDE 2X detergent with DTPA (residual Abz-AGLA-Nba protease activity)
Assay type: physicochemical
Settings: 60 min at 32°C; variant residual AGLA activity divided by wild-type residual activity
Procedure: The stability of thermolysin and variants thereof was measured after incubation under defined conditions in the presence of 25% TIDE® 2× detergent. The initial and residual activity was determined.
MTPs were obtained from Costar (type 9017) and from Greiner (black plate, type 655076). Test Method Unstressed Conditions:
First, 20 μl thermolysin containing culture supernatant was diluted with 180 μl MES assay buffer. Then, 20 μl diluted supernatant was diluted further with 180 μl MES assay buffer. Subsequently 10 μl of this dilution was transferred into 190 μl AGLA-substrate solution in a pre-warmed plate (Greiner 655076) at 25° C. Any air bubbles present were blown away and the plate was measured according to the AGLA protease assay protocol described below.
First, 20 μl of culture supernatant was diluted with 180 μl 27.5% TIDE®+detergent solution and placed in the iEMS shaker. The plate covered with a plate seal was incubated for a total of 60 minutes at 32° C. at 900 rpm. In addition, 20 μl of culture supernatant was diluted with 180 μl 27.5% TIDE®−solution and placed in the iEMS shaker. This plate covered with a plate seal was incubated for a total of 180 minutes at 50° C. at 900 rpm.
Subsequently after the respective incubations, 20 μl of either of these solutions were diluted with 180 μl MES assay buffer and 10 μl of this dilution were diluted with 190 μl AGLA-substrate solution in a pre-warmed plate (Greiner 655076) at 25° C.
Fluorescence measurements were taken at excitation of 350 nm and emission of 420 nm. The spectrofluorometer software calculated the reaction rates (=slope) of the increase in fluorescence for each well to a linearly regressed line of (milli-) RFU/min. The ratio of the residual and initial AGLA activity was used to express the 25% TIDE® 2× stability as follows: Percentage of residual activity=[slope of stressed]*100/[slope of unstressed]
For each sample (thermolysin and variants thereof) the performance index was calculated by dividing the residual activity of the variant by the residual activity of thermolysin. The performance index compared the stability of the variant and the standard thermolysin enzyme (e.g., wild type or parental enzyme), determined under the same conditions.
In these experiments, the liberation of Abz-AG by protease cleavage of Abz-AGLA-Nba was monitored by fluorescence spectrometry (Ex. 350/Em. 420). The rate of appearance of Abz-AG was a measure of proteolytic activity.
The Abz-AGLA-Nba assay solution was prepared by adding 1 ml of the Abz-AGLA-Nba stock to 19 ml MES substrate buffer and mixed well for at least 2 minutes. Subsequently the thermolysin or variants thereof containing culture supernatants were diluted with MES assay buffer to a concentration of 1-6 μg protein per ml.
The assay was performed by adding 10 μl of diluted protease solution to each well, followed by the addition of 190 μl Abz-AGLA-Nba assay solution that was pre-equilibrated for at least 15 minutes at 25° C. The solutions were vigorously mixed, and the liberation of Abz-AG by protease cleavage of Abz-AGLA-Nba was monitored by fluorescence spectrometry at 25° C. in kinetic mode with excitation set at 350 nm and emission set at 420 nm. The rate of appearance of Abz-AG was a measure of proteolytic activity in the samples. The protease activity was expressed as RFU (relative fluorescence units·min^−1).
As described in Example 1, the stability of thermolysin variants was measured by determining the AGLA activity before and after incubation in the presence of TIDE® 2× heavy duty liquid (HDL) detergent at an elevated temperature. The tables contain the relative stability values compared to wild-type thermolysin, which is the quotient of the variant residual activity divided by the wild-type residual activity. A value greater than one indicates higher stability in the presence of detergent. […]

B1: T049M: single-substitution thermolysin variant (SEQ ID NO:3 numbering) (protein, listed as Geobacillus caldoproteolyticus)
chain: ITGTSTVGVGRGVLGDQKNINTTYSTYYYLQDNTRGNGIFTYDAKYRTMLPGSLWADADNQFFASYDAPAVDAHYYAGVTYDYYKNVHNRLSYDGNNAAIRSSVHYSQGYNNAFWNGSQMVYGDGDGQTFIPLSGGIDVVAHELTHAVTDYTAGLIYQNESGAINEAISDIFGTLVEFYANKNPDWEIGEDVYTPGISGDSLRSMSDPAKYGDPDHYSKRYTGTQDNGGVHINSGIINKAAYLISQGGTHYGVSVVGIGRDKLGKIFYRALTQYLTPTSNFSQLRAAAVQSATDLYGSTSQEVASVKQAFDAVGVK
With B1 the “PI (relative stability), 25% TIDE 2X with DTPA” value was 1.02.

B2: G196H: single-substitution thermolysin variant (SEQ ID NO:3 numbering) (protein, listed as Geobacillus caldoproteolyticus)
chain: ITGTSTVGVGRGVLGDQKNINTTYSTYYYLQDNTRGNGIFTYDAKYRTTLPGSLWADADNQFFASYDAPAVDAHYYAGVTYDYYKNVHNRLSYDGNNAAIRSSVHYSQGYNNAFWNGSQMVYGDGDGQTFIPLSGGIDVVAHELTHAVTDYTAGLIYQNESGAINEAISDIFGTLVEFYANKNPDWEIGEDVYTPHISGDSLRSMSDPAKYGDPDHYSKRYTGTQDNGGVHINSGIINKAAYLISQGGTHYGVSVVGIGRDKLGKIFYRALTQYLTPTSNFSQLRAAAVQSATDLYGSTSQEVASVKQAFDAVGVK
For B2, the “PI (relative stability), 25% TIDE 2X with DTPA” value was 1.19.

B3: S065T: single-substitution thermolysin variant (SEQ ID NO:3 numbering) (protein, listed as Geobacillus caldoproteolyticus)
chain: ITGTSTVGVGRGVLGDQKNINTTYSTYYYLQDNTRGNGIFTYDAKYRTTLPGSLWADADNQFFATYDAPAVDAHYYAGVTYDYYKNVHNRLSYDGNNAAIRSSVHYSQGYNNAFWNGSQMVYGDGDGQTFIPLSGGIDVVAHELTHAVTDYTAGLIYQNESGAINEAISDIFGTLVEFYANKNPDWEIGEDVYTPGISGDSLRSMSDPAKYGDPDHYSKRYTGTQDNGGVHINSGIINKAAYLISQGGTHYGVSVVGIGRDKLGKIFYRALTQYLTPTSNFSQLRAAAVQSATDLYGSTSQEVASVKQAFDAVGVK
In the case of B3, the “PI (relative stability), 25% TIDE 2X with DTPA” value is reported as 1.04.

B4: G196D: single-substitution thermolysin variant (SEQ ID NO:3 numbering) (protein, listed as Geobacillus caldoproteolyticus)
chain: ITGTSTVGVGRGVLGDQKNINTTYSTYYYLQDNTRGNGIFTYDAKYRTTLPGSLWADADNQFFASYDAPAVDAHYYAGVTYDYYKNVHNRLSYDGNNAAIRSSVHYSQGYNNAFWNGSQMVYGDGDGQTFIPLSGGIDVVAHELTHAVTDYTAGLIYQNESGAINEAISDIFGTLVEFYANKNPDWEIGEDVYTPDISGDSLRSMSDPAKYGDPDHYSKRYTGTQDNGGVHINSGIINKAAYLISQGGTHYGVSVVGIGRDKLGKIFYRALTQYLTPTSNFSQLRAAAVQSATDLYGSTSQEVASVKQAFDAVGVK
In the case of B4, the “PI (relative stability), 25% TIDE 2X with DTPA” value is reported as 1.02.

B5: A056Y: single-substitution thermolysin variant (SEQ ID NO:3 numbering) (protein, listed as Geobacillus caldoproteolyticus)
chain: ITGTSTVGVGRGVLGDQKNINTTYSTYYYLQDNTRGNGIFTYDAKYRTTLPGSLWYDADNQFFASYDAPAVDAHYYAGVTYDYYKNVHNRLSYDGNNAAIRSSVHYSQGYNNAFWNGSQMVYGDGDGQTFIPLSGGIDVVAHELTHAVTDYTAGLIYQNESGAINEAISDIFGTLVEFYANKNPDWEIGEDVYTPGISGDSLRSMSDPAKYGDPDHYSKRYTGTQDNGGVHINSGIINKAAYLISQGGTHYGVSVVGIGRDKLGKIFYRALTQYLTPTSNFSQLRAAAVQSATDLYGSTSQEVASVKQAFDAVGVK
In the case of B5, the “PI (relative stability), 25% TIDE 2X with DTPA” value is reported as 1.05.

B6: I156K: single-substitution thermolysin variant (SEQ ID NO:3 numbering) (protein, listed as Geobacillus caldoproteolyticus)
chain: ITGTSTVGVGRGVLGDQKNINTTYSTYYYLQDNTRGNGIFTYDAKYRTTLPGSLWADADNQFFASYDAPAVDAHYYAGVTYDYYKNVHNRLSYDGNNAAIRSSVHYSQGYNNAFWNGSQMVYGDGDGQTFIPLSGGIDVVAHELTHAVTDYTAGLKYQNESGAINEAISDIFGTLVEFYANKNPDWEIGEDVYTPGISGDSLRSMSDPAKYGDPDHYSKRYTGTQDNGGVHINSGIINKAAYLISQGGTHYGVSVVGIGRDKLGKIFYRALTQYLTPTSNFSQLRAAAVQSATDLYGSTSQEVASVKQAFDAVGVK
In the case of B6, the “PI (relative stability), 25% TIDE 2X with DTPA” value is reported as 1.07.

B7: A056R: single-substitution thermolysin variant (SEQ ID NO:3 numbering) (protein, listed as Geobacillus caldoproteolyticus)
chain: ITGTSTVGVGRGVLGDQKNINTTYSTYYYLQDNTRGNGIFTYDAKYRTTLPGSLWRDADNQFFASYDAPAVDAHYYAGVTYDYYKNVHNRLSYDGNNAAIRSSVHYSQGYNNAFWNGSQMVYGDGDGQTFIPLSGGIDVVAHELTHAVTDYTAGLIYQNESGAINEAISDIFGTLVEFYANKNPDWEIGEDVYTPGISGDSLRSMSDPAKYGDPDHYSKRYTGTQDNGGVHINSGIINKAAYLISQGGTHYGVSVVGIGRDKLGKIFYRALTQYLTPTSNFSQLRAAAVQSATDLYGSTSQEVASVKQAFDAVGVK
With B7 the “PI (relative stability), 25% TIDE 2X with DTPA” value was 1.10.

B8: S065I: single-substitution thermolysin variant (SEQ ID NO:3 numbering) (protein, listed as Geobacillus caldoproteolyticus)
chain: ITGTSTVGVGRGVLGDQKNINTTYSTYYYLQDNTRGNGIFTYDAKYRTTLPGSLWADADNQFFAIYDAPAVDAHYYAGVTYDYYKNVHNRLSYDGNNAAIRSSVHYSQGYNNAFWNGSQMVYGDGDGQTFIPLSGGIDVVAHELTHAVTDYTAGLIYQNESGAINEAISDIFGTLVEFYANKNPDWEIGEDVYTPGISGDSLRSMSDPAKYGDPDHYSKRYTGTQDNGGVHINSGIINKAAYLISQGGTHYGVSVVGIGRDKLGKIFYRALTQYLTPTSNFSQLRAAAVQSATDLYGSTSQEVASVKQAFDAVGVK
In the case of B8, the “PI (relative stability), 25% TIDE 2X with DTPA” value is reported as 1.05.

B9: A058S: single-substitution thermolysin variant (SEQ ID NO:3 numbering) (protein, listed as Geobacillus caldoproteolyticus)
chain: ITGTSTVGVGRGVLGDQKNINTTYSTYYYLQDNTRGNGIFTYDAKYRTTLPGSLWADSDNQFFASYDAPAVDAHYYAGVTYDYYKNVHNRLSYDGNNAAIRSSVHYSQGYNNAFWNGSQMVYGDGDGQTFIPLSGGIDVVAHELTHAVTDYTAGLIYQNESGAINEAISDIFGTLVEFYANKNPDWEIGEDVYTPGISGDSLRSMSDPAKYGDPDHYSKRYTGTQDNGGVHINSGIINKAAYLISQGGTHYGVSVVGIGRDKLGKIFYRALTQYLTPTSNFSQLRAAAVQSATDLYGSTSQEVASVKQAFDAVGVK
For B9, the “PI (relative stability), 25% TIDE 2X with DTPA” value was 1.02.

B10: I156H: single-substitution thermolysin variant (SEQ ID NO:3 numbering) (protein, listed as Geobacillus caldoproteolyticus)
chain: ITGTSTVGVGRGVLGDQKNINTTYSTYYYLQDNTRGNGIFTYDAKYRTTLPGSLWADADNQFFASYDAPAVDAHYYAGVTYDYYKNVHNRLSYDGNNAAIRSSVHYSQGYNNAFWNGSQMVYGDGDGQTFIPLSGGIDVVAHELTHAVTDYTAGLHYQNESGAINEAISDIFGTLVEFYANKNPDWEIGEDVYTPGISGDSLRSMSDPAKYGDPDHYSKRYTGTQDNGGVHINSGIINKAAYLISQGGTHYGVSVVGIGRDKLGKIFYRALTQYLTPTSNFSQLRAAAVQSATDLYGSTSQEVASVKQAFDAVGVK
For B10, the “PI (relative stability), 25% TIDE 2X with DTPA” value was 1.21.

From patent publication US9976134B2, “Thermolysin variants” (Danisco US Inc., priority 2007, dated 2018)
